From article PMC6233052 (Molecular Biology of the Cell, 2018)

T1: HA-tagged CA R-ras mutant (P202A; P203A) (UniProt P10301 1-218, G38V | P202A | P203A)
T1 sequence: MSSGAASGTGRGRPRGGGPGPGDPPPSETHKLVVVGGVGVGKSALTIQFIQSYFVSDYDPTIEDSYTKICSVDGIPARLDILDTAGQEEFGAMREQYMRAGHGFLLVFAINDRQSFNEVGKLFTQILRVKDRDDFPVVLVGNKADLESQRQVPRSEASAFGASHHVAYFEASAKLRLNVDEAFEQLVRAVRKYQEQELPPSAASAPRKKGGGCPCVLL

T2: HA-tagged constitutively active R-ras (G38V) (UniProt P10301 1-218, G38V)
T2 sequence: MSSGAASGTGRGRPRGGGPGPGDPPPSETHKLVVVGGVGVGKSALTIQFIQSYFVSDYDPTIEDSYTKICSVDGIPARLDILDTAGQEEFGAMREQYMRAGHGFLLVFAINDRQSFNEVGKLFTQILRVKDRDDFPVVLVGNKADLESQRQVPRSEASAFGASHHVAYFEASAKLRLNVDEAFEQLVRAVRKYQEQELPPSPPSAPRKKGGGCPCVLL

T3: HA-tagged WT R-ras (UniProt P10301 1-218)
T3 sequence: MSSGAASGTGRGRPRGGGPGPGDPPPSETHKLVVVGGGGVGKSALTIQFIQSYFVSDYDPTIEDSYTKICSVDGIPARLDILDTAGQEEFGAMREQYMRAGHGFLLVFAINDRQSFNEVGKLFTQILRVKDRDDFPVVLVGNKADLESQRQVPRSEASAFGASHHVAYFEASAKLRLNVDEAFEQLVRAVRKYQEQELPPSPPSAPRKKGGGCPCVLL

T4: HA-tagged full-length FliI (UniProt Q9JJ28 1-1271)
T4 sequence: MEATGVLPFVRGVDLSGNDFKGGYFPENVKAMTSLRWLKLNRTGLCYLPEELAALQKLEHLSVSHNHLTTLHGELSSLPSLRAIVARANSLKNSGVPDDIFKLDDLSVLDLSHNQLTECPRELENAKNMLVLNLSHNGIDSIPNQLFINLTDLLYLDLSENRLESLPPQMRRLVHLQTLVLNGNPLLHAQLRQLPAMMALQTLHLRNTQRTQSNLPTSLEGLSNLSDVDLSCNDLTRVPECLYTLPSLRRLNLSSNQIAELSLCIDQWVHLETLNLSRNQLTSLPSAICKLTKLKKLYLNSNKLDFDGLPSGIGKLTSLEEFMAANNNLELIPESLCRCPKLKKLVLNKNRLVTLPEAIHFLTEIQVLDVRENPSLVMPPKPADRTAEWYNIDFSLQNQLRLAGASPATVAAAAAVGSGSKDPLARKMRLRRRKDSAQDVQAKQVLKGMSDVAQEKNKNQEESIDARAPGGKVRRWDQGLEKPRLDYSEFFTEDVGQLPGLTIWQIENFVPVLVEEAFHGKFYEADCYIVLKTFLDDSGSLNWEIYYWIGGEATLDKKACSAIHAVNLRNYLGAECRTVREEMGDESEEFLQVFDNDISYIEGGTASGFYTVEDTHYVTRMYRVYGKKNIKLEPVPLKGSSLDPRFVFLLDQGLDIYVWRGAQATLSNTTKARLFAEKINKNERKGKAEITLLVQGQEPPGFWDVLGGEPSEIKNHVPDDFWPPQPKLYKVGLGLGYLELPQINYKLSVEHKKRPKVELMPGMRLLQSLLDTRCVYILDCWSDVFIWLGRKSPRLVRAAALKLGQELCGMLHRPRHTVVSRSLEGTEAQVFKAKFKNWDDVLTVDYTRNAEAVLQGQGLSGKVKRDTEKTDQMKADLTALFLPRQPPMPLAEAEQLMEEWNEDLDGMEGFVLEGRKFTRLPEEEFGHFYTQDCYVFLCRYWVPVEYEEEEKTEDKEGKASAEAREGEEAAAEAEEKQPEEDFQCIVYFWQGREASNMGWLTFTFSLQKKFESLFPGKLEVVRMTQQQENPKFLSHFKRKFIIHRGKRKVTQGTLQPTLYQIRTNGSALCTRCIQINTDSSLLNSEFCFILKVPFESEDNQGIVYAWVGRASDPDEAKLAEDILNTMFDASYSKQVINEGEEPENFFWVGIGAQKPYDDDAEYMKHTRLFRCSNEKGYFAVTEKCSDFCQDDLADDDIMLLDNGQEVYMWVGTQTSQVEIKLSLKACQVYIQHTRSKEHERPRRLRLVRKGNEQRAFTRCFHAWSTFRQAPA


Key:
Assay in all cases: co-IP
[1] = biological target: T1, HA-tagged CA R-ras mutant (P202A; P203A)
[2] = biological target: T2, HA-tagged constitutively active R-ras …
HA-tagged WT R-ras = biological target: T3, HA-tagged WT R-ras
[3] = biological target: T4, HA-tagged full-length FliI
HA-tagged FliI LRR = biological target: HA-tagged FliI LRR

fold reduction of association compared with CA R-ras [1] [fold] | fold association compared with DN R-ras [2] [fold] | fold association compared with DN R-ras (HA-tagged WT R-ras) [fold] | fold association compared with FliI GLD [3] [fold] | fold association compared with FliI GLD (HA-tagged FliI LRR) [fold] | Binder
4 | 3.5 | 2.5 | – | – | Flightless I (FliI), endogenous (natural protein) MEATGVLPFVRGVDLSGNDFKGGYFPENVKAMTSLRWLKLNRTGLCYLPEELAALQKLEHLSVSHNHLTTLHGELSSLPSLRAIVARANSLKNSGVPDDIFKLDDLSVLDLSHNQLTECPRELENAKNMLVLNLSHNGIDSIPNQLFINLTDLLYLDLSENRLESLPPQMRRLVHLQTLVLNGNPLLHAQLRQLPAMMALQTLHLRNTQRTQSNLPTSLEGLSNLSDVDLSCNDLTRVPECLYTLPSLRRLNLSSNQIAELSLCIDQWVHLETLNLSRNQLTSLPSAICKLTKLKKLYLNSNKLDFDGLPSGIGKLTSLEEFMAANNNLELIPESLCRCPKLKKLVLNKNRLVTLPEAIHFLTEIQVLDVRENPSLVMPPKPADRTAEWYNIDFSLQNQLRLAGASPATVAAAAAVGSGSKDPLARKMRLRRRKDSAQDVQAKQVLKGMSDVAQEKNKNQEESIDARAPGGKVRRWDQGLEKPRLDYSEFFTEDVGQLPGLTIWQIENFVPVLVEEAFHGKFYEADCYIVLKTFLDDSGSLNWEIYYWIGGEATLDKKACSAIHAVNLRNYLGAECRTVREEMGDESEEFLQVFDNDISYIEGGTASGFYTVEDTHYVTRMYRVYGKKNIKLEPVPLKGSSLDPRFVFLLDQGLDIYVWRGAQATLSNTTKARLFAEKINKNERKGKAEITLLVQGQEPPGFWDVLGGEPSEIKNHVPDDFWPPQPKLYKVGLGLGYLELPQINYKLSVEHKKRPKVELMPGMRLLQSLLDTRCVYILDCWSDVFIWLGRKSPRLVRAAALKLGQELCGMLHRPRHTVVSRSLEGTEAQVFKAKFKNWDDVLTVDYTRNAEAVLQGQGLSGKVKRDTEKTDQMKADLTALFLPRQPPMPLAEAEQLMEEWNEDLDGMEGFVLEGRKFTRLPEEEFGHFYTQDCYVFLCRYWVPVEYEEEEKTEDKEGKASAEAREGEEAAAEAEEKQPEEDFQCIVYFWQGREASNMGWLTFTFSLQKKFESLFPGKLEVVRMTQQQENPKFLSHFKRKFIIHRGKRKVTQGTLQPTLYQIRTNGSALCTRCIQINTDSSLLNSEFCFILKVPFESEDNQGIVYAWVGRASDPDEAKLAEDILNTMFDASYSKQVINEGEEPENFFWVGIGAQKPYDDDAEYMKHTRLFRCSNEKGYFAVTEKCSDFCQDDLADDDIMLLDNGQEVYMWVGTQTSQVEIKLSLKACQVYIQHTRSKEHERPRRLRLVRKGNEQRAFTRCFHAWSTFRQAPA
– | – | – | 4.6 | 4 | R-ras, endogenous (natural protein) MSSGAASGTGRGRPRGGGPGPRDPPPGETHKLVVVGGGGVGKSALTIQFIQSYFVSDYDPTIEDSYTKICTVDGIPARLDILDTAGQEEFGAMREQYMRAGNGFLLVFAINDRQSFNEVGKLFTQILRVKDRDDFPIVLVGNKADLENQRQVLRSEASSFSASHHMTYFEASAKLRLNVDEAFEQLVRAVRKYQEQELPPSPPSAPRKKDGGCPCVLL
